Data on 132 substances can be found in the supplement of paper PMC12042874.

The nature of the data set: amyloid nucleation score (Sup35N fusion, yeast selection) (log enrichment); library NNK3; higher = more nucleation; inactive = no reads after selection. Put shortly: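 Yeast lacking psi expressed peptides of 20 random codons fused to Sup35N, received 100 μM copper sulfate for 24 hours, and were then grown for 7 days at 30°C on medium lacking adenine and uracil. Illumina sequencing of input and output plasmid inserts provided the reads. Nucleation scores are DiMSum log enrichments of output over input, centred on the mode of non-aggregating sequences. Any sequence with under 100 input reads was excluded.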

± gives the uncertainty stated by the source.

GWAMTWNDVYLSYSIYSHSK: the amyloid nucleation score stood at 0.514 ± 0.4. As for KICSIVPLYIRGGHSLGSVV, the entry is “inactive”; as for GVITISREDQYLAVGVIQWI, “inactive”; as for TLMGLESVSVYFSVGFLSVY, “inactive”.

In the case of LLCLLQEIGFVAITGWI, the amyloid nucleation score result was “inactive”. On to DFHYFKRVRNQGWNQKRKRY, for which the amyloid nucleation score entry was “inactive”.

Turning to SQSNGFGFFYMMSLVSWVDV, the amyloid nucleation score entry was “inactive”. As for YTPGLPSDFN, the entry is “inactive”; as for YDKQENVEGLFALF, “inactive”; as for GDVLLY, “inactive”. As for RRYGTDRLLMRYSIENFCVL, the entry is “inactive”; as for NRVMSVLF, “inactive”. The value for GFHELRLH was “inactive”; that for ELVCVA was “inactive”; that for TSTYANKALTVLE was “inactive”. On to SNICKLFCCTESIKSQTRLW, for which the amyloid nucleation score is 2.61 ± 0.082.

As for SWMDRILVRYWVVLDNRNFV, the amyloid nucleation score entry was “inactive”. As for LELVRG, the entry is “inactive”; as for CKGKSFFARSYS, “inactive”. Turning to PITDFTSNISNSRDPLQVRG, the amyloid nucleation score result is “inactive”.

Consider PRRTNKVARGGRHARVRKVE, for which the amyloid nucleation score result was “inactive”.

REKDSAAHVVE: the amyloid nucleation score entry was “inactive”. As for NTGVENGREVDYARGANRSP, the amyloid nucleation score entry was “inactive”. As for PGHFLECRKW, the figure is -0.096 ± 0.66; as for EVVITLANAEGPAEQEF, “inactive”; as for GNISGLNLVCEPIAVGSACE, -0.962 ± 1.9. For YTWDVGHLKNSSSVYWKLLR, the amyloid nucleation score entry was “inactive”. Take GCIKGVICLTHC: the amyloid nucleation score result was “inactive”. As for YGTSATKRTALFWYDMTKFG, the entry is “inactive”. As for ISTDSVIHTTMEHSGE, the entry is “inactive”; as for GCFSV, “inactive”; as for GSLIMSLAR, “inactive”. As for PDFNLWRTEMLSYNGWK, the entry is “inactive”; as for VIYISCFTVLLVFLVNTPLR, 1.2 ± 0.11; as for APSPPMNFSPCKLDLPCWAI, “inactive”. With CQLLHMELDNARRCEIKKPA, the amyloid nucleation score entry is “inactive”. As for PETMCLGAKRFITGRETREL, the figure is 0.588 ± 0.14.

In the case of KRSNISV, the amyloid nucleation score entry is “inactive”.

For the substance NIVAVRCWFLDFPQDD, the amyloid nucleation score result was “inactive”. As for HILSCSQVFG, the figure is 0.025 ± 0.6.

As to LRVVISLVIYMRSSTRICSV, the amyloid nucleation score result is “inactive”.

For the substance IAYDWCQVSVTNFMSRSLMH, the amyloid nucleation score is -0.04 ± 0.75. As for IRAYTDNDSNLSEFGVFTLV, the entry is “inactive”.

As for PWFTMVRIGEMVLYLRMQRR, the amyloid nucleation score entry was “inactive”. The value for STGYYVMDVYLTVAYYVDSN was “inactive”; that for CSVVSWFEAGFRFNDLMNGV was “inactive”. As for MSSYKCSECLRGHRGTPLPV, the entry is “inactive”. The value for PCLYLGIFARTKMHPTNDCM was -0.88 ± 1.1; that for DLLDHGFEASSKDLEFRDHS was “inactive”. As for LGVTGINSVIYMYEMVS, the amyloid nucleation score result is “inactive”.

Consider GKMLRWMKH, for which the amyloid nucleation score result is “inactive”. As for YFSMIVVGCVNFKELPDNRV, the figure is 1.78 ± 0.086; as for GLLLVRM, “inactive”; as for CLCNRDRLSSNFGGMTDKLH, “inactive”.

For the substance VHGIRSELDRYLMNTNSTEL, the amyloid nucleation score result was “inactive”. As for YYSMTKNARCGHSFEAKSLF, the entry is “inactive”; as for YFRGPF, “inactive”; as for MFVRYIAISYWYQLTWEFSV, “inactive”.

On to LYLRQKYLRALTNFNFPRAT, for which the amyloid nucleation score result was “inactive”.

Consider FIVVVLLCFG, for which the amyloid nucleation score entry was “inactive”. Take TKTISGHCPVLMSVFWSMAL: the amyloid nucleation score entry was “inactive”. The value for MCMSAFEGSSIICDCMVVLL was 1.85 ± 0.088. As for RVYMPAAKSINYEPNITRM, the entry is “inactive”. The value for SAQPESY was “inactive”; that for DCWYHMPHQIWH was “inactive”. With LAEGYVSVIRIYKRGWNEDV, the amyloid nucleation score entry is “inactive”. In turn, SSYGSPIIVLNTHSTVGIRI registered an amyloid nucleation score of 1.59 ± 0.11.

As to SEMLFIDQLCSSSVSKYTVI, the amyloid nucleation score entry was “inactive”.

Turning to SARISNAVNDSFTGKTMYNK, the amyloid nucleation score result was “inactive”. The value for CDVQKSLGCHTCWGRDWWNR was “inactive”; that for DWTGNMGDNHSTRVFRRKRD was “inactive”. The value for MQSAVNVV was “inactive”. The value for MLSFLYRELN was “inactive”; that for LRVQHFDTFNPANGSTPKVG was “inactive”. The substance WVTIESNLCIVSFNRSRSQK yielded an amyloid nucleation score of 2.66 ± 0.075. The value for YSATGIPSCWRLNFVENLRT was “inactive”; that for GTYPSKIKGFTLKGNLR was “inactive”; that for FKSCLRTC was “inactive”.

LDVVYRDIIDFRVLVESVYF: the amyloid nucleation score result was “inactive”.

Regarding FDTFTMTEDSNPEKSECGLK, the amyloid nucleation score result is “inactive”. As for DDGSLDLMTKTA, the entry is “inactive”; as for TRRATGYFHFS, “inactive”; as for TMLRFIYSYDAFRR, 0.931 ± 0.22.

For SSVDSSFANCCVISKRNHML, the amyloid nucleation score entry is “inactive”. TVEVNCCYLEGNVV returned an amyloid nucleation score of 1.03 ± 0.089. As for RDCTMYNTYFIWNIYPG, the figure is 3.42 ± 0.07; as for QTMDTYLWLAR, -0.083 ± 1.1; as for PQADLVRFAMCRRAMNLVPW, “inactive”.

As to AYMYSTILGSMPS, the amyloid nucleation score was determined as 1.44 ± 0.11. As for VPNDKVGKLRIMGREWVRSH, the entry is “inactive”; as for MWFPSVLWTIISQSYEMQKL, 0.783 ± 0.12. The value for SSLLSEWNGGKSYNSVVDEV was “inactive”; that for DVGTCSLLNGHKYFFRFNVV was “inactive”.

For MLNLRCSKCGMMPLRNRIVS, the amyloid nucleation score result is “inactive”.

Take FCYSDLNYRWICYSRDVESS: the amyloid nucleation score result was “inactive”.

WDNWSTIRWTVYALSRKSAR: the amyloid nucleation score entry is “inactive”. The value for SIGPVCIRTQSRPQITLRMM was “inactive”; that for RVMMSAACHLILCWNWPKWK was “inactive”. The value for SYRPMHTDGLSLYSRQNLSY was “inactive”; that for YMGPKDSELDSNRAGCDMSC was “inactive”.

ARFISVCEHEARLRERTCMC: the amyloid nucleation score result is “inactive”. For MIVARMLVSIYKSWTIILRY, the amyloid nucleation score entry is “inactive”. In the case of ISFSSES, the amyloid nucleation score result was “inactive”. As for NQYLLCMLMWNARSGSRSMI, the entry is “inactive”; as for YYLCVVPLRLLGRCASWSFG, “inactive”. As for MNEGLYS, the amyloid nucleation score result was “inactive”. As for SAPKWGGTYDRVCTISNFTV, the amyloid nucleation score entry is “inactive”.

MTYCRVFRNRASDKPYMMRL: the amyloid nucleation score result was “inactive”. For EFMILDLCMG, the amyloid nucleation score entry is “inactive”.

GKSSKDLHIFIMIRVWHYLT: the amyloid nucleation score entry was “inactive”.

Turning to SLFSEMSVYMQDYFWVT, the amyloid nucleation score result is “inactive”.

As for FWGLSAMSLEVRGWRMGGEL, the amyloid nucleation score amounted to 0.196 ± 0.54. The value for VTLMLSITSP was “inactive”; that for LVWSSSEVVFFA was “inactive”. As for NYVCGVIAVNVVMNSSNNWR, the figure is 2.66 ± 0.051; as for ELNTFKSTQIHWGIGDSSQE, 0.34 ± 0.31. The value for PFLTTKIVQVAGDLVNMFYE was 1.24 ± 0.16; that for YSLNGAY was “inactive”; that for VAKFYRQ was “inactive”.

Take ITCANALLCDGSRFSM: the amyloid nucleation score was determined as 0.741 ± 0.16.

ADVDCFTVNLVYSRYAFVTT: the amyloid nucleation score entry was “inactive”.

The substance RYTVSGTLSAYF gave an amyloid nucleation score of -0.112 ± 0.37.

Substance YQVRV returned an amyloid nucleation score of 0.056 ± 0.33. In the case of HKWLV, the amyloid nucleation score result was “inactive”. The value for IWSNTYPSIRSLWMSFGVVI was “inactive”; that for LVRHARNKDNLFGN was “inactive”; that for FMPMFLRICCTMMLMWLFAC was “inactive”. As for LYLAMRENMWFEPEVNGCYG, the entry is “inactive”; as for VWVFYWDKLRKF, “inactive”. Consider CEVRGCNYTYSVGERCSQN, for which the amyloid nucleation score result is “inactive”. The value for LFKMPCLILVWPDSMFATSL was “inactive”. The value for SFIIVILYGDHALYFTYEAV was “inactive”.
